Measured values as given in a protein production outcome set (Wang et al. 2014).

Experiment: label from the status in PepcDB records
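Note: failed if final PepcDB status was selected cloned or expressed and not failed if soluble or beyond.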

Sequence	protein production
MKGLCSSDTRQYLPGHQLWEAPVQIRRYSAVIHHATKCQWGVIPSRTINVSLHQTRRMRVAAVGIGGAGGRIVERLWQDNERRETTYLGAACAVDTDTEALDELDALPADRRYAFGLSETNGTGTNGDRTSGTAAIEDERLEVRRAIDELVTSDIDAVVLVAGLAGGTGSGATAHIADALREVYSIPVYCLSVLPAGRDDDAAANTMQALRALESTVDGQILFDNEAWLGSGQTVESASETLNETIVARLGALFAAGEATAPDAVGQSVVDASEIINTLSDAGFTTLGYASQDLQTGAGSGDGTVIDQLKNRFLGDNADDVDEIEAYNAVETTLRRAVRGKLTAQCELDSADRALAVFAGPPAWLIRDAVTDGRRWLTEELQSPLEHHHHHH	failed
VLAEYASRIVSAEEAVKHIKNGERVALSHAAGVPQSCVDALVQQADLFQNVEIYHMLCLGEGKYMAPEMAPHFRHITNFVGGNSRKAVEENRADFIPVFFYEVPSMIRKDILHIDVAIVQLSMPDENGYCSFGVSCDYSKPAAESAHLVIGEINRQMPYVHGDNLIHISKLDYIVMADYPIYSLAKPKIGEVEEAIGRNCAELIEDGATLQLGIGAIPDAALLFLKDKKDLGIHTEMFSDGVVELVRSGVITGKKKTLHPGKMVATFLMGSEDVYHFIDKNPDVELYPVDYVNDPRVIAQNDNMVSINSCIEIDLMGQVVSECIGSKQFSGTGGQVDYVRGAAWSKNGKSIMAIPSTAKNGTASRIVPIIAEGAAVTTLRNEVDYVVTEYGIAQLKGKSLRQRAEALIAIAHPDFREELTKHLRKRFG	not failed
MPVPPEFPLSVFYDGSCSVCATEMEAYMRKEHGGRLLFVDISAPSFDPTPYGITLDAFMYQMHAIDRTGRVYLSVEAFWAIWQAFPASTLYGFLGALVMLPGVNLLARAGYRGFARIRKYLPRRRETCAGGSCRIGQREE	failed
MSKTDTAAVEATEENSNETTSDAATSSSGEKEAEFDNKIEADRSRRFDFLLKQTEIFTHFMTNSAKSPTKPKGRPKKIKDKDKEKDVADHRHRKTEQEEDEELLAEDSATKEIFRFDASPAYIKSGEMRDYQIRGLNWMISLYENGINGILADEMGLG	failed
MQVELIIKNLKVYNSYFKKFIKSDVLINEGKFLHIGKGYEDRLWSENIIDGEDKYIIPGLIDIHMHIESSMTIPREFSKAAIKHGVTTVVADPHEIANVFGVRGIEEFIKFKGNLDIFYGIPSSVPSTSSSLETTGEKITHNEVKRLLEYDNIICLGEVMNFKDLIEDDDSNINKIINISKEKNIPLEGHCPKIQGVDLSLYIYRGVNGDHTQQSVGSLQEKIQNGMFIEMQHKSMTLENIKFLIENNLYEHFALVTDDVMADKLVKGHLDEILKEAVKLGMSIENAIYASTYTPARRMNLLDRGTIAPGKLADFILLDSIEDFNIYEVYKNGEMVFNRDKGLKEEFFEDKSKLDYRFYNSIELNNITKESLEVKVPNKYKNKVNCRTMKVLKNTTFTEEGEVTLNVYNNILQWEKSSCALIAVFERYGKNNNISFGLVEGEIIKEGAIATTWAHDHHNLMVMGRNISDMTIAANEVINSRGGYVVSKNNEVIAKLELPIGGIISDEPIEIIGEKLGEVRNAMRDLGYNHMNEIMSFSTLSLPVSPALKITDKGLIDVKKGSIVSLFKKGLY	failed
MKNKTYYLSIIFTSLVCLFLFTKALGFILWINGAPIDKWVAWVGLFAIPIFIYYSFPGRSLKKTQKIVTIVIIIVQIIWLKWAINQSKYYVYVNSNNILPSPYIIQETPNSNTPISLGQRLLTNYTFYKSIHSYLYVRENVTKSDRGIVDWIKHFDSEIKEEEDDGRIYIETYKGKLFFK	failed
MPHLVIEATANLRLETSPGELLEQANAALFASGQFGEADIKSRFVTLEAYRQGTAAVERAYLHACLSILDGRDAATRQALGESLCEVLAGAVAGGGEEGVQVSVEVREMERASYAKRVVARQR	not failed
MTEPEGYRRFLQLVAHEFFHLWNVKRIRPKALEQFDYEAENYTPSLWFSEGATSYYDLLLPLRAGLYGVDSFLEALGKDLSRYLTTPGRKVQPLAESSFDAWVKLYRRDAYSDNQQMSYYLKGQLVCWLLDLEIRNHQPDLEHHHHHH	failed
MSPQSMLTSPQHPRRTTMVISHGTLSASAEHAAHLRQLLVHIAQATRQEDGCLLYLVSEDLSQPGHFLITEHWDNLGAMHTHLALPGVTQAIDALKHLNVTDLKITAYEAGEAINIMG	not failed
MHTEQALHTRIADIVESIILKKVTPDTALISSGLVDSLAAVDITLAVESEYGCSIPAPEIAEHLQSVRTLAGYVAANSQ	failed
MQNIILTTKKIFRLAFILILIAATFMSCKTAPAKEETLIDLIKAGKSEELQERLNSSAINMKDEEGNSLLHIAAVKNDPIIVRLLINMDADIEAKNNTGATPLAAALNNSAYDAVKVLVEYNANIFAKDNEGEKPFDTACKNNVPNLILTAQTIKQKDENQDTVLHLAVKAMDKQLTKQILAIAPPETVYNKENLSPLAIAYKHNNAEDSAEIASILLLAGIQPMGKDFAEFETASLARNYSMRFADGETLLHIFARKGYTGFLKFLIKNKVPIDVKDISSSTAMQEAVYNGNTEAAILLLQAGADPNSRNSSGNTALHLVMPEASRSKLFNELITAGANPNLKDNYGETPLHVAARIGMNDDILDQLLKAGADINERNKKGQTPLILAIDRNQTQQVDFLINHGADIHAEDKSGESAFIHSLSMGLPMVEHVVTEKNSTERDSNGSTPLHLAVSHRASSDIIYYLVEKKSLINTRNKLGNTPLHIAAEKNYREAGEILIANNADIFYANLNGDSPLKFALTLREGREDWMINSHTIGAGDGAGNTPLHLAAEWQILPMIPYLIDKGADINARNTNNETPLFNAVRTDSPEAIKALLGEGVSKKADLDARDFLGNTILHAAVRWSAYKAADFILSKDTEEYVRLINAKNLAGKTVLHEAAKQGEIKFINIFLKAKVDVNAADETGRSPLSEAVLANQTQAIDLLLKNGASPVQQDMYGRTALHEAVEISEESIILVRNAGGNPLTKDAYGKTPFSLALNKNIRTVDLVLGNDSLLADTDGDTPLHIAVKERVSLDYFQRIMKKKYPVNKRNKNGETALLLAIQNSQKEITRALLAGGADPFIVNNKGVSAITEIFMHHPDFTPIAAEFSLKQTDTLGEGMLHYAAKFADVQTLKDILALPGIKLDVKNTAGETPYQVALRWNRSEIAELLKTE	failed
MHSVHPTPKFSIITVTYNAEKVLEDTIQSVISQTYHHVEYIIVDGASKDGTLSIIDRYRPRITTVVSEPDKGLYDAMNKAISLASGDYLCFLNAGDCFHEDDTLQQMVHSIHGSVLPDVIYGETAIVDKDRHFLHMRRLSAPEKLDWKSFKQGMLVCHQAFFARHTLVEPYDLSYRYSADFDWCIRIMKKAYTLHNTHLTIIDYLDEGMTTQNRKASLKERFRIMAKHYGWISTAAHHAWFVLRLIIKPGQLEHHHHHH	not failed
MSIPLLEYKPSSQNQRVPGYEVPNEDTPRIYRIEDAAYDSELKELIWATYRQVFSEHVILKFFRQGNLESQLKNRAISVRDFVRGLAKSEAFKTLVIKSNSNYRLVELALKRLLGRAPYNKDEEIAWSIKIATNGWDGFVDALLDSEEYQSNFGENIVPYQRRRYKDRPFNLVTPRYGNYWRDKLESERYIEGDIKNFLELAKSIEIKTVTFTPVSTANIKIPDTTRNTTPTGIPISVNPSANFPVRLEHHHHHH	failed
MYKIVSDSACDLSKEYLEKHDVTIVPLSVSFDGETYYRDGVDITRDECYQRMVDDPKLFPKTSLPSVESYADVFRSFVEQGFPVVCFTITTLFSGSYNSAINAKSLVLEDYPDANICVIDSKQNTVTQALLIDQFVRMLEDGLSFEQAMSKLDALMASARIFFTVGSLDYLKMGGRIGKVATAATGKLGVKPVIIMKDGDIGLGGIGRNRNKLKNSVLQVAKKYLDENNKDNFIVSVGYGYDKEEGFEFMKEVESTLDVKLDSETNVAIGIVSAVHTGPYPIGLGVIRKYETL	not failed
MFSLREYRNKADRLADFLPWAALVAPGVVLNKDGSFQRSARFRGPDLDSATPAELIATTARLNSALRRLGSGWAIFVEAVRRPAHDYPESDFPDAASALVERERAAQFAEEGAHFESAYYLTLVWMPPAEDAARAESWLYEGKAHQGVQARELLELFSDRTDRLLRLIEGFVPEAAWLDDSETLTYLHSCISTRNHRVRVPETPMHLDALLADEPLTGGLEPRLGRAHLRTLTVVGFPSATFPGILDELNSQGFAYRWSTRAIMLDKTDAAKLLGKIRRQWFAKRKSVAAILKEVMTNEASALLDSDASNKAADADAALQELGSDLQGMAYVTATVTVWDEDAAMAAEKLRLVEKVIQGRDFTVIVEGMNALEAWLGSLPGHVYANVRQPPISTLNLAHMIPLSAVWAGPEWDAHFRAPPLFYARTEGSTPFRFALHVGDVGHTLIVGPTGAGKSVLLALMALQFRRYDRAQIFAFDFGGSIRAAALACGGDWQDLGTSLAGDGAGAVMLQPLARIDEPAERNWAAEWLQAVLTGEGVTVDPATKEHLWSALTSLSTALVAERTLTGLAVLLQSQALKQALAPYCIGGPFGRLLDAEAEQLGAGKFQAFETEGLTGSAAAPAVLSYLFHRIEGRLDGSPTLIIIDEGWLVLDSPAFAAQLREWLKTLRKKNASVVFATQSLADIETSAIAPAIIESCPTRIFLPNERAIEPQILSVYRRFGLNDRQIEIIARAAPKRDYYCQSARGNRLFELGLGEVALAFAAASSKTDQLAISELTETHGTGGFARAWLRHRGLAWAADMLPPDPVPPTRSDQAAGQPKE	failed
MRYFSTDSPEVKTIVAQDSRLFQFIEIAGEVQLPTKPNPFQSLVSSIVEQQLSIKAASAIYGRVEQLVGGALEKPEQLYRVSDEALRQAGVSKRKIEYIRHVCEHVESGRLDFTELEGAEATTVIEKLTAIKGIGQWTAEMFMMFSLGRLDVLSVGDVGLQRGAKWLYGNGEGDGKKLLIYHGKAWAPYETVACLYLWKAAGTFAEEYRSLEELLHHGNQC	not failed
MSKKIILITGASSGFGRLTAEALWSRPPGIRLDARHCRPQRVQCSPALPGTMTLTCAPWSSTSSRRSVDRAIDQIIGEDGRIDVLIHNAPHGVRTRRSIHARAVRRALRYQCAPNASTGRRCRTCAGKSMGFSWISSSSSAGGTPPYLAPYFAAKAHGCHRCAVRTAVALGHRDVDHRPVPSRAAPITSPIPAYRTTTPAAEYEAGPNAGLGEEIKKAFAAIVAGRRCVTGCRCHCSGCGHRVRQARSGCTSTRPKTAPMWDSAFWTGRAEMLHRVGLSDLLKPRALA	not failed
MGFLQRISLMITSLIILHTIPSTTSISITPDAPTMILIDSICVNTKNMYYCEQSIISKLGNPHAEIKTIADIAAFNAVYLITSAGNYIRDKFIPIAENPLVKNQLVLCLATYRAVQKLLEGAYLADRRGDYSDMRHYQSSVLGMLDNCKTDFDYMVRTNWGVRLMINISLLATRQLPAQ	failed
MSDCLFDLHIGYVRFKNPIALAPMAGIVDSAFANQYASNAGLVILGAFNLDKASIAVASALVARGRKEFISDEPMEFMKKEIRAVTSGSAVAVNVRSTTLEPLIEAAKIVKEEGAILELNAHCRQPEMLEAGLGEALLHDLPKLSAWIRAIKETGVVLSVKVRANVVNDIELARLIDKAGADIIHVDAEMEGFGADLDAILNYRDATRLFLIGNNSVKDFEAAKEMFTRGADMVSAARGVLENSGLIQELVENVTSYQQSIGWYNAPKHVCSEGDFRGLAFCCLPVKPCPVHEKFQKLGYTAEEFARTKLDFAKGTMLEYGEDTCFGSLVWCCKITKPCWIRDGVLNTIGLSDTEYMKLKKQLAEYVLDHARIPVNESQ	failed
LKDIETACKLLNITADPMDWSPSNVQKWLLWTEHQYRLPPMGKAFQELAGKELCAMSEEQFRQRSPLGGDVLHAHLDIWKSAA	not failed
MLTYQVKQGDTLNSIAADFRISTAALLQANPSLQAGLTAGQSIVIPGLPDPYTIPYHIAVSIGAKTLTLSLNNRVMKTYPIAVGKILTQTPTGEFYIINRQRNPGGPFGAYWLSLSKQHYGIHGTNNPASIGKAVSKGCIRMHNKDVIELASIVPNGTRVTINR	not failed
